# Source: patent publication US20260151494A1 (ARO BIOTHERAPEUTICS, published 2026)
# Experiments:
# [1] = biological target: T1, human CD71 extracellular domain (human, UniProt P02786 89-760); assay: primary ELISA; also: test concentration or dose not given here
# T1 construct: also called hCD71; CD71-ECD
# [2] = biological target: T2, human apical domain of CD71 (human, UniProt P02786 189-383, limits assumed); assay: primary ELISA; also: test concentration or dose not given here
# T2 construct: domain: apical domain
# T2 sequence (P02786 189-383 limits assumed): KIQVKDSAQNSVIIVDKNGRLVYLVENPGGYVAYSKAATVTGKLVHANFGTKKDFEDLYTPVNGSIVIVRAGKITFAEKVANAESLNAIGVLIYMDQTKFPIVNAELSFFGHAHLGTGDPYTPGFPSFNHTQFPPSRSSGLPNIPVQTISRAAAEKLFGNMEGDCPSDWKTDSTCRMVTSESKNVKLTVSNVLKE
# [3] = biological target: T1, human CD71 extracellular domain; assay: primary ELISA; signal over HSA control; as to RLU: test concentration or dose not given here
# [4] = biological target: T2, human apical domain of CD71; assay: primary ELISA; signal over HSA control; as to RLU: test concentration or dose not given here
# T1 sequence (P02786 89-760): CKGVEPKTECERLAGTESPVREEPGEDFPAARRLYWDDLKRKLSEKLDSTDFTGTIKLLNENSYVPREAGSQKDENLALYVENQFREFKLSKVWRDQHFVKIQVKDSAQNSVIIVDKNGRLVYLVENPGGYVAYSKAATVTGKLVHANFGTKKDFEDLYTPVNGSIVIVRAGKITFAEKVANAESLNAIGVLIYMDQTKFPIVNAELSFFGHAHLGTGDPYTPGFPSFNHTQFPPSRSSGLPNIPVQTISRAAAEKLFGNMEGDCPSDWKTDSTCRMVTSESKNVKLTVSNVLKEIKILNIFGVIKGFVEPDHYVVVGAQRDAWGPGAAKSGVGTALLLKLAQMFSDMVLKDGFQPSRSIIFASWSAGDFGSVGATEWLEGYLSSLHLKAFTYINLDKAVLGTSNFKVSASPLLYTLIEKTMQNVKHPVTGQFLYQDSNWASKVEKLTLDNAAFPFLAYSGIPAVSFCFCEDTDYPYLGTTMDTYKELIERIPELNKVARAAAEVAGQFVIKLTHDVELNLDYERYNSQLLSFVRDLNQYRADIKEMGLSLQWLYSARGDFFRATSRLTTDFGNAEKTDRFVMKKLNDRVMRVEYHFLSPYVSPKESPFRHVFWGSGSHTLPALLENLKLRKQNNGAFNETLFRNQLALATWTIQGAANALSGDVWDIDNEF
RLU [1],RLU [2],hCD71:HSA [3],Apical domain:HSA [4],Binder
4.72e+06 RLU,5.66e+06 RLU,122 ratio,146 ratio,CD71-binding FN3 domain SEQ ID NO 404 (designed binder) MLPAPKNLVVSRVTEDSARLSWTAPDAAFDSFFIGYLEPQPPGEAIHLLVPGSERSYDLTGLKPGTEYNVTIQGVKGGFPSEPLLAIVTT
6.6e+06 RLU,6.32e+06 RLU,54 ratio,52 ratio,CD71-binding FN3 domain SEQ ID NO 416 (designed binder) MLPAPKNLVVSRVTEDSARLSWTAPDAAFDSFFIGYLEPQPPGEAIALYVPGSERSYDLTGLKPGTEYNVTIQGVKGGFPSLPLVATFTT
3.9e+06 RLU,3.2e+06 RLU,46 ratio,379 ratio,CD71-binding FN3 domain SEQ ID NO 410 (designed binder) MLPAPKNLVVSRVTEDSARLSWTAPDAAFDSFFIGYLEPQPPGEAIALWVPGSERSYDLTGLKPGTEYNVTIQGVKGGFPSQPLHAHFTT
5.23e+06 RLU,6.36e+06 RLU,261 ratio,318 ratio,CD71-binding FN3 domain SEQ ID NO 411 (designed binder) MLPAPKNLVVSRVTEDSARLSWTAPDAAFDSFFIGYLEPQPPGEAISLFVPGSERSYDLTGLKPGTEYNVTIQGVKGGFPSVPLSATFTT
4.4e+06 RLU,4.35e+06 RLU,89 ratio,88 ratio,CD71-binding FN3 domain SEQ ID NO 431 (designed binder) MLPAPKNLVVSRVTEDSARLSWTAPDAAFDSFFIGYLEPQPPGEAIVLFVPGSERSYDLTGLKPGTEYNVTIQGVKGGFPSNPLSAISTT
6.71e+06 RLU,6.18e+06 RLU,86 ratio,79 ratio,CD71-binding FN3 domain SEQ ID NO 414 (designed binder) MLPAPKNLVVSRVTEDSARLSWTAPDAAFDSFFIGYLEPQPPGEAIHLYVPGSERSYDLTGLKPGTEYNVTIQGVKGGFPSHPLIANFTT
3.73e+06 RLU,3.11e+06 RLU,94 ratio,79 ratio,CD71-binding FN3 domain SEQ ID NO 432 (designed binder) MLPAPKNLVVSRVTEDSARLSWTAPDAAFDSFFIGYLEPQPPGEAIALYVPGSERSYDLTGLKPGTEYNVTIQGVKGGFPSGPLEAYFTT
2.26e+06 RLU,3.23e+06 RLU,116 ratio,165 ratio,CD71-binding FN3 domain SEQ ID NO 408 (designed binder) MLPAPKNLVVSRVTEDSARLSWTAPDAAFDSFFIGYLEPQPPGEAIGLWVPGSERSYDLTGLKPGTEYNVTIQGVKGGFPSMPLSAIFTT
4.46e+06 RLU,5.66e+06 RLU,227 ratio,288 ratio,CD71-binding FN3 domain SEQ ID NO 436 (designed binder) MLPAPKNLVVSRVTEDSARLSWTAPDAAFDSFFIGYLEPQPPGEAIHLLVPGSERSYDLTGLKPGTEYNVTIQGVKGGFPSEPLWAKFTT
4.44e+06 RLU,6.23e+06 RLU,247 ratio,347 ratio,CD71-binding FN3 domain SEQ ID NO 425 (designed binder) MLPAPKNLVVSRVTEDSARLSWTAPDAAFDSFFIGYLEPQPPGEAIGLLVPGSERSYDLTGLKPGTEYNVTIQGVKGGFPSNPLSAIFTT
3.9e+06 RLU,5.16e+06 RLU,117 ratio,155 ratio,CD71-binding FN3 domain SEQ ID NO 424 (designed binder) MLPAPKNLVVSRVTEDSARLSWTAPDAAFDSFFIGYLEPQPPGEAIHLIVPGSERSYDLTGLKPGTEYNVTIQGVKGGFPSDPLDASFTT
3.2e+06 RLU,3.93e+06 RLU,402 ratio,495 ratio,CD71-binding FN3 domain SEQ ID NO 420 (designed binder) MLPAPKNLVVSRVTEDSARLSWTAPDAAFDSFFIGYLEPQPPGEAIHLQVPGSERSYDLTGLKPGTEYNVTIHGVKGGIPSMPLSAKFTT
1.95e+06 RLU,3.47e+06 RLU,108 ratio,193 ratio,CD71-binding FN3 domain SEQ ID NO 405 (designed binder) MLPAPKNLVVSRVTEDSARLSWTAPDAAFDSFFIGYLEPQPPGEAIHLWVPGSERSYDLTGLKPGTEYNVTIQGVKGGFPSLPLSAFFTT
3.13e+06 RLU,4.03e+06 RLU,313 ratio,403 ratio,CD71-binding FN3 domain SEQ ID NO 434 (designed binder) MLPAPKNLVVSRVTEDSARLSWTAPDAAFDSFFIGYLEPQPPGEAIGLQVPGSERSYDLTGLKPGTEYNVTIQGVKGGFPSDPLQAIFTT
6.19e+06 RLU,5.9e+06 RLU,195 ratio,186 ratio,CD71-binding FN3 domain SEQ ID NO 428 (designed binder) MLPAPKNLVVSRVTEDSARLSWTAPDAAFDSFFIGYLEPQPPGEAISLYVPGSERSYDLTGLKPGTEYNVTIQGVKGGFPSNPLIAQFTT
3.6e+06 RLU,4.59e+06 RLU,211 ratio,269 ratio,CD71-binding FN3 domain SEQ ID NO 419 (designed binder) MLPAPKNLVVSRVTEDSARLSWTAPDAAFDSFFIGYLEPQPPGEAIALLVPGSERSYDLTGLKPGTEYNVTIQGVKGGFPSSPLNAYFTT
3.22e+06 RLU,2.82e+06 RLU,168 ratio,147 ratio,CD71-binding FN3 domain SEQ ID NO 437 (designed binder) MLPAPKNLVVSRVTEDSARLSWTAPDAAFDSFFIGYLEPQPPGEAISLWVPGSERSYDLTGLKPGTEYNVTIQGVKGGFPSTPLSAKFTT
4.43e+06 RLU,5.95e+06 RLU,13 ratio,176 ratio,CD71-binding FN3 domain SEQ ID NO 426 (designed binder) MLPAPKNLVVSRVTEDSARLSWTAPDAAFDSFFIGYLEPQPPGEAIFLLVPGSERSYDLTGLKPGTEYNVTIQGVKGGFPSMPLSAIFTT
3.86e+06 RLU,4.98e+06 RLU,287 ratio,370 ratio,CD71-binding FN3 domain SEQ ID NO 413 (designed binder) MLPAPKNLVVSRVTEDSARLSWTAPDAAFDSFFIGYLEPQPPGEAIYLRVPGSERSYDLTGLKPGTEYNVTIQGVKGGFPSAPLHAHFTT
3.51e+06 RLU,3.61e+06 RLU,501 ratio,516 ratio,CD71-binding FN3 domain SEQ ID NO 415 (designed binder) MLPAPKNLVVSRVTEDSARLSWTAPDAAFDSFFIGYLEPQPPGEAIHLQVPGSERSYDLTGLKPGTEYNVTIQGVKGGFPSMPLSAIFTT
4.37e+06 RLU,6e+06 RLU,112 ratio,153 ratio,CD71-binding FN3 domain SEQ ID NO 412 (designed binder) MLPAPKNLVVSRVTEDSARLSWTAPDAAFDSFFIGYLEPQPPGEAIGLLVPGSERSYDLTGLKPGTEYNVTIQGVKGGFPSHPLLAVFTT
6.63e+06 RLU,6.56e+06 RLU,58 ratio,57 ratio,CD71-binding FN3 domain SEQ ID NO 423 (designed binder) MLPAPKNLVVSRVTEDSARLSWTAPDAAFDSFFIGYLEPQPPGEAIALYVPGSERSYDLTGLKPGTEYNVTIQGVKGGFPSEPLVATFTT
3.62e+06 RLU,5.5e+06 RLU,210 ratio,319 ratio,CD71-binding FN3 domain SEQ ID NO 435 (designed binder) MLPAPKNLVVSRVTEDSARLSWTAPDAAFDSFFIGYLEPQPPGEAIALWVPGSERSYDLTGLKPGTEYNVTIQGVKGGFPSHPLAAVFTT
2.97e+06 RLU,5.88e+06 RLU,171 ratio,340 ratio,CD71-binding FN3 domain SEQ ID NO 422 (designed binder) MLPAPKNLVVSRVTEDSARLSWTAPDAAFDSFFIGYLEPQPPGEAISLLVPGSERSYDLTGLKPGTEYNVTIQGVKGGFPSHPLDASFTT
3.64e+06 RLU,3.58e+06 RLU,126 ratio,124 ratio,CD71-binding FN3 domain SEQ ID NO 430 (designed binder) MLPAPKNLVVSRVTEDSARLSWTAPDAAFDSFFIGYLEPQPPGEAIDLWVPGSERSYDLTGLKPGTEYNVTIQGVKGGFPSYPLSASFTT
4.91e+06 RLU,6.2e+06 RLU,225 ratio,284 ratio,CD71-binding FN3 domain SEQ ID NO 409 (designed binder) MLPAPKNLVVSRVTEDSARLSWTAPDAAFDSFFIGYLEPQPPGEAIHLFVPGSERSYDLTGLKPGTEYNVTIQGVKGGFPSNPLSAQFTT
1.76e+06 RLU,4.2e+06 RLU,167 ratio,398 ratio,"CD71-binding FN3 domain SEQ ID NO 421 (designed binder, The cell prints '42') MLPAPKNLVVSRVTEDSARLSWTAPDAAFDSFFIGYLEPQPPGEAIDLWVPGSERSYDLTGLKPGTEYNVTIQGVKGGFPSMPLEAVFTT"
4.51e+06 RLU,6.17e+06 RLU,305 ratio,417 ratio,CD71-binding FN3 domain SEQ ID NO 417 (designed binder) MLPAPKNLVVSRVTEDSARLSWTAPDAAFDSFFIGYLEPQPPGEAIQLFVPGSERSYDLTGLKPGTEYNVTIQGVKGGFPSDPLVASFTT
3.26e+06 RLU,3.57e+06 RLU,169 ratio,184 ratio,CD71-binding FN3 domain SEQ ID NO 433 (designed binder) MLPAPKNLVVSRVTEDSARLSWTAPDAAFDSFFIGYLEPQPPGEAIALYVPGSERSYDLTGLKPGTEYNVTIQGVKGGFPSLPLEANFTT
2.25e+06 RLU,3.52e+06 RLU,392 ratio,612 ratio,CD71-binding FN3 domain SEQ ID NO 427 (designed binder) MLPAPKNLVVSRVTEDSARLSWTAPDAAFDSFFIGYLEPQPPGEAIHLRVPGSERSYDLTGLKPGTEYNVTIQGVKGGFPSDPLIAVFTT
